Patent publication US7462599B2, “Use of effectors of glutaminyl and glutamate cyclases” (Probiodrug AG, priority 2003, dated 2008)

Molecular target: QC (Homo sapiens, UniProt Q16769)
Test: LC/MS analysis of QC-catalyzed pyroglutamate formation
Type: biochemical

Sequence of QC (Q16769 29-361): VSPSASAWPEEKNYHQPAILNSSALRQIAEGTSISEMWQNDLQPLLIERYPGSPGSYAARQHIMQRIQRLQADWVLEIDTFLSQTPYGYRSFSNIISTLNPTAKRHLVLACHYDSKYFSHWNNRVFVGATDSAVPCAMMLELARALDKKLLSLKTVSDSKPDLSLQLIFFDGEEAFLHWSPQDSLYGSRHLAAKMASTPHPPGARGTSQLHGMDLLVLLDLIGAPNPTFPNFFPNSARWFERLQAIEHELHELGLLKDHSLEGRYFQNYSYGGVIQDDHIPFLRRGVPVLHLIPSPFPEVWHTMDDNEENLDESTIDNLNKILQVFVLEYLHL

- formation of N-terminal pyroglutamate catalyzed by QC: is catalyzed by QC
B1: MCP-2 isoforms: Human Monocyte Chemotactic Protein 2 (MCP-2) isoforms, 76 residue chemokine (protein, UniProt P80075 24-99, looked up)
C-C motif chemokine 8: QPDSVSIPITCCFNVINRKIPIQRLESYTRITNIQCPKEAVIFKTKRGKEVCADPKERWVRDSMKHLDQIFQNLKP
